Laboratory results reported in the nanobody polyreactivity screen of Harvey et al. (2022).

Experiment: yeast display, Sf9 membrane polyspecificity reagent, FACS + sequencing; frameworks hold sequencing errors
Procedure, shortened: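 After 36–48 hours of galactose induction, yeast (Saccharomyces cerevisiae BJ5465) displaying a synthetic nanobody library were stained at 4 °C for 1 hour with 10% biotinylated, detergent-solubilized Sf9 membrane reagent. Streptavidin microbeads enriched the stained cells before FACS sorting into low and high (top ~1%) gates on anti-HA and streptavidin fluorescence. Each clone's polyreactivity label reflects its gate of origin.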

Row | Sequence | polyreactivity (PSR sort gate)
1 | QVQLVESGGGLVQAGGSLRLSCASSGFIFRGYAMGWYRQAPGKERELVAVISRSGTSTYYADSVKGRFTISRDNAKITVYLQMNSLKPEDTAVYYCAKEVWPRYIRQAYLSGYESWGQGTQVTVSS | high polyreactivity
2 | QVQLVESGGGLVQAGGSLRLSCAASGFTFSENAMGWYRQAPGKERELVADITNGASTNYADSVKGRFTISRDNEKNTVYLLMNSLKPEDTAVYYCATDSYPGLNPDFDYWGLGTQVTVSS | low polyreactivity
3 | QVQLVESGGGLVQAGGSLRLSCAASGLTLETNAMGWYRQAPGKERELVAGITYSGGTTYYADSVKGRFTISRDNAKNSVYLQINSLKPDDTAVYDCNAGPLRSGRYTYYYWGQGTQVTVSS | low polyreactivity
4 | QVQLVESGGGLVQAGGSLRLSCAASGSIFGTNAMGWYRQAPGKERELVAAISFSGGDTYYADSVKGRFTISRDNAKKTVYLQMNRLKPEDTAVYYCAAEVPDTDAYGYWGQGTQVTVSS | low polyreactivity
5 | QVQLVESGGGLVQAGGSLRLSCAATGRIFHRYAMGWYRQAPGKEREFVAAITYSTGTTYYADSVKGRFTISRDNAKNTVYLQMNSLKPEDTAVYYCAKVSRFWHKSWFAYGYDYWGQGTQVTVSS | low polyreactivity
6 | QVQLVESGGGLVQAGGSLRLSCASSGRTFSGYAMGWYRQAPGKERELVASITWSGGSTYYADSVKGRFTISRDNAKNTVYLQMNSLKPDDTAVYYCARDSPRGRVGFNYWGQGTQVTVSS | low polyreactivity
7 | QVQLQESGGGLVQAGGSLRLSCAASGTISPLPAMGWYRQAPGKEREFVAGIDTGAITNYADSVKGRFTISRDNAKNTVYLQMNSLKPEDTPVYYCAATFYYSGHDDYWGQGTQVPVSS | low polyreactivity
8 | QVQLVESGGGVVQAGGSLRLSCDASGSTFDTYAMGWYRQAPGKERELVAGNTRRGGRTYYADSVKGRFTISRDNAKNTVYVQMNSLKPEDSAVYYCNALPQRPVGKRDHWGQGTQVTVSS | high polyreactivity
9 | QVQLVESGGGLVQAGGSLRLSCAASGFIFYFYAMGWYRQAPGKERELVAAISYNGGSTYYADSVKGRFTISRDNAKNTVYLQMNSLKPEDTAVYYCNAVRNYAWGKMYSWGQGTQVTVSS | high polyreactivity
10 | QVQLVESGGGLVQAGGGLRLSCAASGSYYKYYAMGWYRQAPGKEREFVAAITRSGGSTYYADSVKGRFTISRDNAKNTDYLQMNSLKPEDTAVYYCATDLRTRNYDYWGQGTQVTVSS | high polyreactivity
11 | QVQLEESGGGLVQAGVSLRLSCAASGRIFGVYTMGWYRQAPGKERELVAAISRTGGRTYYADSVKGRFTISRDNAKNTVYLQMNSLKPEDTAVYYCAADSRGEDYYYWGQGTQVTVSS | high polyreactivity
12 | QVQLVESGGGLVQAGGSLRLSCAASGSTSKVYAMGWSRQAPGKERELVAAITFSGGSTYADSVKGRFTISRDNAKNTVYLQMNSLKPEDTAVYYCAVEVPYSWWWLVDYWGQGTLVTVSS | high polyreactivity
13 | QVQLEESGGGLVQAGGSLRLSCAASGSTIDYYTMGWYRQAPGKERELVAAISSSGGSTYYADSVKGRFTISRDNAKNTVYLQMNSLKPEDTAVYYCNSDSWYPDHFSYYGPYDYWGQGTQVTVSS | low polyreactivity
14 | QVQLVESGGGLVQAGGSLRLSCAASGLTFSRYAMGWYRQAPGKERELVAAITWSGSSTYYADSVKGRFTISRDNAKNTVYLQMNSLKPEDTAVYYCAARYGYSRGPYYRSDYWGQGTQVNVSS | high polyreactivity
15 | QVQLVESGGGLVQAGGSLRLSCAASGITFYDYAMGRYRQAPGKERELVAAISGGGITYYADSVKGRFTISRDNAKNTVYLQMNSLKPEDTAVYYCAAVYIAGYGYDYWGQGTQVTVSS | low polyreactivity
16 | QVQLVESGGGLVQAGGSLRLSCAASGSTFVDYALGWARQAPGKERELVAAISSSGGSTYYADSVKGRFTISRDTAKNTVYLQMNSLKPEDTAVYYCAARYDRSSKRNYWGQGTQVTVSS | low polyreactivity
17 | QVQLVESGGGLVQAGGSLRLSCAASGSIFSYNGMGWYRQAPGKEREFVAAITWRGGSTYYADSVKGRFTISRDNAMNTVYLQMNSLKPEDTAVYYCARRPGYALTWRVSGRYDYWGQGTQVTVSS | high polyreactivity
18 | QVQLVESGGGLVQAGGSLRLSCAASGRLFNYNAMGWYRQAPGKERELVASITVSRGSTYYADSVKGRFTISRDNATNTVYLQMYSLKPEDTAVYNCAADYGSKLDYGYWGQGTQVTVSS | low polyreactivity
19 | QVQLVESGGGLVQAGGSLRLSCAASGSIFYPYAMGWYRQAPGKERELVARIRGTGGRTYYADSVKGRFTISRDNAKNTVYLQMNSLKPEDTAVYYCNAQTSGRVGSQYYSYYGSWGQGTQLTVSS | high polyreactivity
20 | QVQLVESGGGLVQAGGSLRLSCAASGRIFYRYAMGWYRQAPGKERELVATITNGGSTNYADSVKGRFTISRDNAMITVYLQMNSLKPEDTAVYYCAASRSRYSVNCYNYWGQGTQVTLSS | high polyreactivity
21 | QVQLVESGGGLVQAGGSLRLSSAASGRIFYGYAMGWYRQAPGKERELVAGISYRGARTYYADSVKGRFTISRDNAKNTVYLQMNSLKPEDTAVYYCNAVPYYPFAFGALDYWGQGTQVTVSS | high polyreactivity
22 | QVQLVESGGGLVQAGGSLRLSCAASGSIFPQYAMGWYRQAPGKERELVAAISSSGGRTYYADSVKGRFTISRDNAKNTVYLQMNSLKPEDTAVYYCAADGSYAIGGYGYWGQGTQVTVSS | high polyreactivity

Row | Sequence | polyreactivity (PSR sort gate)
23 | QVQLVESGGGLVLAGGSLRLSCAASGSTFYAHAMGWYRQARGKERELVAAITSGGSTNYADSVKGRFTISRDNAKNTVNLQINSLKPEDTAVYYCATPVNRERHAEDYWGQGTQVTVSS | low polyreactivity
24 | QVQLVESGGGLVQAGGSLRLSCAASGRTLSWYAMGWYRQAPGKERELVAAISYRGVSTYYADSVKGRFTISRDNAKNTVYLQMNSLNPEDTAVYYCAAESWYYSYIVEMEYWGQGTQVTVSS | high polyreactivity
25 | QVQLVESGGGLVQAGGSLRLSCAASGSNIFQYDMGWYRQAPGKERELVAAITISGGSTYYADSVKGRFTISRDNAKNTVYLQLNILKPEDTAVYYCNADYEWYLGGYDYWGQGTQVTVSS | high polyreactivity
26 | QVQLVESGGGLVQAGGSLRLSCAASGRIFSRYTMGWYRQAPGKERELVAAISSRGGSTYYADSVKGRFTISRDNAKNTVYLQMNSLKPEDTAVYYCNTPSYSGSSPYDHWGQGTQVTVSS | high polyreactivity
27 | QVQLVESGGGLVQAGGSLRLSCAASGFTFQYYAMGWYRQAPGKERELVAAISRGGSTNYADSVKGRFTISRDNAKNTVYLQMNSLKPEDTAVYYCARLGWTYLWGYDSWGQGTQVTVSS | high polyreactivity
28 | QVQLVESVGGLVQAGGSLRLSCAASGSTFVRYTMGWYRQAPGKERALVAAISWNGGRTYYADSVKGRFTISRDNTKNTVYLQMNSLKPEDTAVYYCNAVRLVYTGNSDYGYWGQGTQVTVSS | high polyreactivity
29 | QVQLVESGVGLVQAGGSLRLSCAASGLIFASNSMGSYRQAPGKEREFVAAITSSGGSTYYADSVKGRFPISRDNAKNTVYLQMNSLKPEDTAVYYCAADLYGAWWYTYGRYYYWGQGTQVTVSS | low polyreactivity
30 | QVQLVESGGGLVQAGGSLRLSCAASGSTIVYYAMGWYRQAPGKERELVARITWSGGRTYADSVKGRFTISRDNAKNTVYLQMNSLKPEDTAVYYCNADPGDNTTEYDYWGQGTQVTVSS | low polyreactivity
31 | QVQLVESGGGLVQAGGSLRLSCAASGSTFPRYAMGWYRQAPGKEREFVAAISRRGGSTYYADSVKGRFTISRDNAKNTVYLQMNSLKPEDTAVYYCAKYLPTRVWGTGRFDYWGQGTQVTVSS | high polyreactivity
32 | QDQHVESGGGLVQAGGSLRLSCAASGIILSAYAMGWYRQAPGTERELVARISRSGGRTYYADSVKGRFTISRDNAKNTVYLQMNSLKPEDTAVYYCAADYSYGFGLYFGYGYWGQGTQVTVSS | high polyreactivity
33 | QVQLVESGGGLVQAGGSLRLSCAASGYTFPIYAMGWYRQAPGKEREVVATISSGGRTNYADSVKGRFTISRDNAKNTVYLQMNSLKPEDTAVYYCNARRLGWHALYLYDYWGQGTQVTVSS | high polyreactivity
34 | QVQLVESGGGLVQAGGSLRLSCAASGSIFSTYAMGWYRQAPGKERELVASITSTGGSTYYADSVKGRFTISRDNAKNTVYLQMNSLKPEDTAVYYCAARYRRTHRYYYAYSTMDYWGQGTQVTVSS | high polyreactivity
35 | QVQLVESGGGLVQARGSLRLSCAASGSIIGGNAMGWYRQAPGKERELVATISWSGGSTYYADSVKGRFTISRDKAKNTVYLQMNSLKPEDTAVYYCAKTPYRRYRYGGYTYRTYEYWGQGTQVTVSS | low polyreactivity
36 | QVQLVESGGGLVQAGGSLRLSCAASGNIFIYNAMGWYREAPGKERELVAVISNSGSTYYADSVKGRFTISRDNAKNTVYLQMHSLKPEDSAVYYCNKDGGGDSYWYDYWGQGTHVTVSS | low polyreactivity
37 | QVQLVESGGCLVPAGGSLRLSGAASGSTYHFYAMGWYRHAQGKERELVASITSRGGNTHYADSVKGRFRISRDNAKNTVYFQMNSLKPEVTAVYSCAASGGWYGTYDYWGQGTQVTVSS | low polyreactivity
38 | QVQLVESGGGLVQAGGSLRLSCAASGIIFVRYAMGWYRQAPGKERELVAAITRNGGRTYYADSVKGRFTISRDNAKNTVYLQMNSLKPEDTAVYYCAAYPAYPGTLEMDYWGQGTQVTVSS | high polyreactivity
39 | QVQLVESGGGLVQAGGSLRLSCAASGRIFRSYALGWYRQAPGKERELVAAISSSDGSTYYADSVKGRFTISRDNAKNTVYLQMNSLKPEDTAVYYCNAEQVCYTYGRYPEWYLYGYWGQGTQVTVSS | low polyreactivity
40 | QVQLVESGGGLVQAGGSLRLSCAASGSTFWWTTMGWYRQAPGTERELVAAITTGGGTYYADSVKGRFTISRDNAKNTVYLQMNSLKPEDTAVYYCNADYDSQYHYLLRYDYWGQGTQVTVSS | low polyreactivity
41 | QVQLVESGGGLVHAGGSLRLSCAASGFIFTKNAMGWYRQAPGKDRELVAAITSSGGNTYYADSVKGRFTISRDNAKNTVYLQMNSLKPEDTAVYYCAASRFLRMYWGQGTQVTVSS | high polyreactivity
42 | QVQLEESGGGLVQAGGSLRLSCAASGSIFSRNAMGLYRQAPGTERELVAVITRSGSTNYADSVKGRFTISRDNAKNTVYLQKKSLTPQDTAVYYCNADQDAYYLVSIATYDYWGQGTQVTVSS | low polyreactivity
43 | QVQLVESGGGLVQAGGSLRLSCAASGFTFAKYAMGWYRQAPGKERELVAAITNSGCRTYYEDSVKGRFTISRDNAKNTVYLQMNSPKPEDTAVYYCATEQLGGSIYDYWGQGTQVTVSS | high polyreactivity
